{"source": "patent US20130224798A1", "binders": {"B1": {"name": "STF2.HA1-1His(PR8), produced in Baculovirus (protein)", "chain": "AQVINTNSLSLLTQNNLNKSQSALGTAIERLSSGLRINSAKDDAAGQAIANRFTANIKGLTQASRNANDGISIAQTTEGALNEINNNLQRVRELAVQSANSTNSQSDLDSIQAEITQRLNEIDRVSGQTQFNGVKVLAQDNTLTIQVGANDGETIDIDLKQINSQTLGLDSLNVQKAYDVKDTAVTTKAYANNGTTLDVSGLDDAAIKAATGGTNGTASVTGGAVKFDADNNKYFVTIGGFTGADAAKNGDYEVNVATDGTVTLAAGATKTTMPAGATTKTEVQELKDTPAVVSADAKNALIAGGVDATDANGAELVKMSYTDKNGKTIEGGYALKAGDKYYAADYDEATGAIKAKTTSYTAADGTTKTAANQLGGVDGKTEVVTIDGKTYNASKAAGHDFKAQPELAEAAAKTTENPLQKIDAALAQVDALRSDLGAVQNRFNSAITNLGNTVNNLSEARSRIEDSDYATEVSNMSRAQILQQAGTSVLAQANQVPQNVLSLLASGSGSGSSHNGKLCRLKGIAPLQLGKCNIAGWLLGNPECDPLLPVRSWSYIVETPNSENGICYPGDFIDYEELREQLSSVSSFERFEIFPKESSWPNHNTNGVTAACSHEGKSSFYRNLLWLTEKEGSYPKLKNSYVNKKGKEVLVLWGIHHPPNSKEQQNLYQNENAYVSVVTSNYNRRFTPEIAERPKVRDQAGRMNYYWTLLKPGDTIIFEANGNLIAPMYAFALSRGFGSGIITSNASMHECNTKCQTPLGAINSSLPYQNIHPVTIGECPKYVRHHHHHH"}, "B2": {"name": "STF2.HA1-3(PR8), produced in E. coli (protein)", "chain": "MAQVINTNSLSLLTQNNLNKSQSALGTAIERLSSGLRINSAKDDAAGQAIANRFTANIKGLTQASRNANDGISIAQTTEGALNEINNNLQRVRELAVQSANSTNSQSDLDSIQAEITQRLNEIDRVSGQTQFNGVKVLAQDNTLTIQVGANDGETIDIDLKQINSQTLGLDSLNVQKAYDVKDTAVTTKAYANNGTTLDVSGLDDAAIKAATGGTNGTASVTGGAVKFDADNNKYFVTIGGFTGADAAKNGDYEVNVATDGTVTLAAGATKTTMPAGATTKTEVQELKDTPAVVSADAKNALIAGGVDATDANGAELVKMSYTDKNGKTIEGGYALKAGDKYYAADYDEATGAIKAKTTSYTAADGTTKTAANQLGGVDGKTEVVTIDGKTYNASKAAGHDFKAQPELAEAAAKTTENPLQKIDAALAQVDALRSDLGAVQNRFNSAITNLGNTVNNLSEARSRIEDSDYATEVSNMSRAQILQQAGTSVLAQANQVPQNVLSLLANSENGICYPGDFIDYEELREQLSSVSSFERFEIFPKESSWPNHNTNGVTAACSHEGKSSFYRNLLWLTEKEGSYPKLKNSYVNKKGKEVLVLWGIHHPPNSKEQQNLYQNENAYVSVVTSNYNRRFTPEIAERPKVRDQAGRMNYYWTLLKPGDTIIFEANGNLIAPMYAFALSRG"}, "B3": {"name": "STF2.HA1-2(PR8), produced in E. coli (protein)", "chain": "MAQVINTNSLSLLTQNNLNKSQSALGTAIERLSSGLRINSAKDDAAGQAIANRFTANIKGLTQASRNANDGISIAQTTEGALNEINNNLQRVRELAVQSANSTNSQSDLDSIQAEITQRLNEIDRVSGQTQFNGVKVLAQDNTLTIQVGANDGETIDIDLKQINSQTLGLDSLNVQKAYDVKDTAVTTKAYANNGTTLDVSGLDDAAIKAATGGTNGTASVTGGAVKFDADNNKYFVTIGGFTGADAAKNGDYEVNVATDGTVTLAAGATKTTMPAGATTKTEVQELKDTPAVVSADAKNALIAGGVDATDANGAELVKMSYTDKNGKTIEGGYALKAGDKYYAADYDEATGAIKAKTTSYTAADGTTKTAANQLGGVDGKTEVVTIDGKTYNASKAAGHDFKAQPELAEAAAKTTENPLQKIDAALAQVDALRSDLGAVQNRFNSAITNLGNTVNNLSEARSRIEDSDYATEVSNMSRAQILQQAGTSVLAQANQVPQNVLSLLAKGIAPLQLGKCNIAGWLLGNPECDPLLPVRSWSYIVETPNSENGICYPGDFIDYEELREQLSSVSSFERFEIFPKESSWPNHNTNGVTAACSHEGKSSFYRNLLWLTEKEGSYPKLKNSYVNKKGKEVLVLWGIHHPPNSKEQQNLYQNENAYVSVVTSNYNRRFTPEIAERPKVRDQAGRMNYYWTLLKPGDTIIFEANGNLIAPMYAFALSRGFGSGIITS"}, "B4": {"name": "STF2.HA1-2(PR8)mut, produced in E. coli (protein)", "chain": "B3 chain with I509A, Y540D, V542A"}, "B5": {"name": "STF2.EIII+ (protein)", "chain": "MAQVINTNSLSLLTQNNLNKSQSALGTAIERLSSGLRINSAKDDAAGQAIANRFTANIKGLTQASRNANDGISIAQTTEGALNEINNNLQRVRELAVQSANSTNSQSDLDSIQAEITQRLNEIDRVSGQTQFNGVKVLAQDNTLTIQVGANDGETIDIDLKQINSQTLGLDSLNVQKAYDVKDTAVTTKAYANNGTTLDVSGLDDAAIKAATGGTNGTASVTGGAVKFDADNNKYFVTIGGFTGADAAKNGDYEVNVATDGTVTLAAGATKTTMPAGATTKTEVQELKDTPAVVSADAKNALIAGGVDATDANGAELVKMSYTDKNGKTIEGGYALKAGDKYYAADYDEATGAIKAKTTSYTAADGTTKTAANQLGGVDGKTEVVTIDGKTYNASKAAGHDFKAQPELAEAAAKTTENPLQKIDAALAQVDALRSDLGAVQNRFNSAITNLGNTVNNLSEARSRIEDSDYATEVSNMSRAQILQQAGTSVLAQANQVPQNVLSLLRKGNSKLEGQLEFPRTSMEKLQLKGTTYGVCSKAFKFLGTPADTGHGTVVLELQYTGTDGPCKVPISSVASLNDLTPVGRLVTVNPFVSVATANAKVLIELEPPFGDSYIVVGRGEQQINHHWHKSGSSIGK"}}, "target": "Toll-like Receptor 5 (TLR5) constitutively expressed by HEK293 cells (UniProt O60602)", "test": "cell-based or functional assay", "note": "Numbering of substitutions follows the chain as printed.", "data": [{"binder": "B1", "values": [{"measurement": "TLR activity (EC50, ng/ml)", "value": 3, "unit": "ng/mL"}]}, {"binder": "B2", "values": [{"measurement": "TLR5 activity (EC50, ng/ml)", "value": 1.2, "unit": "ng/mL"}]}, {"binder": "B3", "values": [{"measurement": "TLR5 activity (EC50, ng/ml)", "value": 0.15, "unit": "ng/mL"}]}, {"binder": "B4", "values": [{"measurement": "TLR5 activity (EC50, ng/ml)", "value": 1.2, "unit": "ng/mL"}]}, {"binder": "B5", "values": [{"measurement": "TLR-5 EC50 (batch 052)", "value": "> 5000", "unit": "ng/mL"}, {"measurement": "TLR-5 EC50 (batch 054)", "value": 1200, "unit": "ng/mL"}, {"measurement": "TLR-5 EC50 (batch 057)", "value": 198, "unit": "ng/mL"}]}]}
